The values below come from US20200157519A1.

First the molecules themselves.
B1: scFv clone 7A3 (scFv, V domains shown)
VH: EVQLVESGGGLVQPGGSLRLSCAASGFTINDWSIHWVRQAPGKGLEWVAYIGPFWGSTFYADSVKGRFTISADTSKNTAYLQMNSLRAEDTAVYYCARGYFGFDYWGQGTLVTVSS
VL: DIQMTQSPSSLSASVGDRVTITCRASQDVGGWVAWYQQKPGKAPKLLISSPRSLYSGVPSRFSGSGSGTDFTLTISSLQPEDFATYYCQQYFSSPFTFGQGTKVEIKR
B2: scFv clone 3C2 (scFv, V domains shown)
VH: EVQLVESGGGLVQPGGSLRLSCAASGFTIGNSSIHWVRQAPGKGLEWVAGIWPYWGSTYYADSVKGRFTISADTSKNTAYLQMNSLRAEDTAVYYCARFGINNDGFMDYWGQGTLVTVSS
VL: B1 VL with G30S, P51T, R52G, F92Y, S93D, S94F, F96I
B3: scFv clone 8F2 (scFv, V domains shown)
VH: EVQLVESGGGLVQPGGSLRLSCAASGFTINNYGIHWVRQAPGKGLEWVAGIWPYWGYTYYADSVKGRFTISADTSKNTAYLQMNSLRAEDTAVYYCARFDSNSYSSYSDGFMDYWGQGTLVTVSS
VL: B1 VL with G30D, G31N, W32S, P51A, F92Y, S93N, S94Y, F96I
B4: phage-displayed 3D5 scFv (scFv)
scFv: DIQMTQSPSSLSASVGDRVTITCRASQDVSNNVAWYQQKPGKAPKLLIFWSPWLYSGVPSRFSGSGSGTDFTLTISSLQPEDFATYYCQQGWDSPVTFGQGTKVEIKRGGGGSGGGGSGGGGSEVQLVESGGGLVQPGGSLRLSCAASGFTISDFGIHWVRQAPGKGLEWVASIWPSGGYTYYADSVKGRFTISADTSKNTAYLQMNSLRAEDTAVYYCARSWFYSWYDYWGQGTLVTVSS

Where a chain is given by its changes, count along the chain named.

Chain of human fibrinogen (human) (P02671 20-629 limits assumed, chain 1 of 3): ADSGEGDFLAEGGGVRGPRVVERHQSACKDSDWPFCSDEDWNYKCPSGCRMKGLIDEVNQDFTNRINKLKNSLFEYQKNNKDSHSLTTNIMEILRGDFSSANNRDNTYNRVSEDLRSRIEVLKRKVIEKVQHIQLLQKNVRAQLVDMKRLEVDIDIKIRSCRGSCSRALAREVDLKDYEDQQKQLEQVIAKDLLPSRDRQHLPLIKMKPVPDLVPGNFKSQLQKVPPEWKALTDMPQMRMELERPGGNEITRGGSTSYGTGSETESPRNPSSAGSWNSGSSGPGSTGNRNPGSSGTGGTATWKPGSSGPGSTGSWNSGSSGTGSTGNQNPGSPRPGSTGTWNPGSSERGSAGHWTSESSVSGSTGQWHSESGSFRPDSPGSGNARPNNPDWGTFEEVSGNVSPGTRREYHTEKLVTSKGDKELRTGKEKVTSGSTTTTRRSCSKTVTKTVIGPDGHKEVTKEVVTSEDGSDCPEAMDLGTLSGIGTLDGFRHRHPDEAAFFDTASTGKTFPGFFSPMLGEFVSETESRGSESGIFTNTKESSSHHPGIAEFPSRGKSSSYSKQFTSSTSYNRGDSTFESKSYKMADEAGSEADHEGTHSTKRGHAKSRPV
Chain of human fibrinogen (human) (P02675 31-491 limits assumed, chain 2 of 3, further chain): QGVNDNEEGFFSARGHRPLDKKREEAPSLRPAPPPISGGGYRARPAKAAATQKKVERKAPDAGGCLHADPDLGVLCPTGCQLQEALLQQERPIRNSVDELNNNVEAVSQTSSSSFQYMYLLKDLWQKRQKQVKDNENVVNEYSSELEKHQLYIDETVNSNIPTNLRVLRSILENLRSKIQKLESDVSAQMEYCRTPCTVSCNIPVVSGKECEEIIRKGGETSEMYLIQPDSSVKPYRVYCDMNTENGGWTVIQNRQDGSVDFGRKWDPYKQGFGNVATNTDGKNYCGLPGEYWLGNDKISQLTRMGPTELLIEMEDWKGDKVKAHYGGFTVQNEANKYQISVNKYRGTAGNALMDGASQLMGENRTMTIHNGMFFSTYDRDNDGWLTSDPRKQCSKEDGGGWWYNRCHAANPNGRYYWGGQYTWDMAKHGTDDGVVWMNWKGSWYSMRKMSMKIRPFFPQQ
Chain of human fibrinogen (human) (P02679 other isoform, or with tags, fused parts or gaps limits assumed, chain 3 of 3, further chain): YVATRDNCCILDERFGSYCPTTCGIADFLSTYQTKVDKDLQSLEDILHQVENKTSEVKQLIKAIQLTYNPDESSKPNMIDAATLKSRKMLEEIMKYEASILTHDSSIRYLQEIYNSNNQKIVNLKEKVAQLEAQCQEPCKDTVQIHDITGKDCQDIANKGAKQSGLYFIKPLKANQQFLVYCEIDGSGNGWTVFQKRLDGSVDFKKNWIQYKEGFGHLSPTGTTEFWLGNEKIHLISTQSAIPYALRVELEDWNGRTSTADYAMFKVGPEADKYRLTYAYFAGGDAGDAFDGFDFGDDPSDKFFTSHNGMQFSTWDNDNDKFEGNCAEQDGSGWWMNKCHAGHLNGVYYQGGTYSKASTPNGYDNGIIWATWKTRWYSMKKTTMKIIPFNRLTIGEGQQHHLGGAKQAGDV

This assay addresses human fibrinogen (human) (UniProt P02671). As to the kind of experiment: single colony ELISA, secreted scFv on coated fibrinogen (negative control antigen), anti-E-tag-HRP.
In turn, B1 had an OD450 Fibrinogen of 0.0209 OD450.
As for B2, the figure is 0.0117 OD450.
B3: the OD450 Fibrinogen came to 0.0366 OD450.
Take B4: the OD450 Fibrinogen is 0.0022 OD450.
